Test results reported in US10370642B2, “Hematopoietic progenitor cell populations having affinity for E-selectin / L-selectin” (priority 2000, dated 2019).

What was measured:
[1] = tested on: KG1a cells; test: CHO-E cell rolling on glutaraldehyde-fixed KG1a monolayers; assay type: cell-based, human; settings: 2.8 dynes/cm^2; EDTA 5 mM; HECA 452 50 μg/ml
Description: (§1) E-selectin-mediated adhesive interactions, under defined shear stress, were examined between hematopoietic cell monolayers and suspensions of CHO-E (Chinese hamster ovary cells stably transfected with full-length cDNA encoding human E-selectin) in flow. CHO-E and empty vector constructs (CHO-Mock) were maintained in MEM 10% FBS/1% Penicillin/Streptomycin (Life Technologies, Inc.) and HAM's F-12 (Cellgro, Inc.)/5% FCS/1% Penicillin/Streptomycin, respectively. CHO-E cell tethering and rolling on hematopoietic cell monolayers was visualized by video microscopy in real time using the parallel-plate flow chamber. […] To prepare hematopoietic cell monolayers>90% confluent, suspensions of cells (KG1a, HL60, K562, or RPMI 8402) at 2×10^6/ml RPMI1640 without NaBicarbonate/2% FBS were cytocentrifuged in […] plates at 5×10^6/well and then fixed in 3% glutaraldehyde. Reactive aldehyde groups were blocked in 0.2M lysine, and plated cells were suspended H/H/Ca++. […] The number of CHO-E/Mock cell rolling on each monolayer was measured in one frame of five independent fields under 10× magnification from multiple experiments. A minimum of 3 experiments was performed and results were expressed as the mean±standard deviation.

[2] = tested on: HL60 cells; test: CHO-E cell rolling on glutaraldehyde-fixed HL60 monolayers; assay type: cell-based, human; settings: 2.8 dynes/cm^2; EDTA 5 mM; HECA 452 50 μg/ml
Description: as §1

[3] = target: T1, E-selectin (Homo sapiens, UniProt P16581); test: CHO-E cell rolling on immobilized immunoprecipitates, parallel-plate flow chamber; assay type: cell-based; settings: immunoprecipitates on plastic; 2.8 dynes/cm^2
T1 construct: stably transfected with full-length cDNA encoding human E-selectin; expressed in transfected cells
T1 sequence (P16581 22-610): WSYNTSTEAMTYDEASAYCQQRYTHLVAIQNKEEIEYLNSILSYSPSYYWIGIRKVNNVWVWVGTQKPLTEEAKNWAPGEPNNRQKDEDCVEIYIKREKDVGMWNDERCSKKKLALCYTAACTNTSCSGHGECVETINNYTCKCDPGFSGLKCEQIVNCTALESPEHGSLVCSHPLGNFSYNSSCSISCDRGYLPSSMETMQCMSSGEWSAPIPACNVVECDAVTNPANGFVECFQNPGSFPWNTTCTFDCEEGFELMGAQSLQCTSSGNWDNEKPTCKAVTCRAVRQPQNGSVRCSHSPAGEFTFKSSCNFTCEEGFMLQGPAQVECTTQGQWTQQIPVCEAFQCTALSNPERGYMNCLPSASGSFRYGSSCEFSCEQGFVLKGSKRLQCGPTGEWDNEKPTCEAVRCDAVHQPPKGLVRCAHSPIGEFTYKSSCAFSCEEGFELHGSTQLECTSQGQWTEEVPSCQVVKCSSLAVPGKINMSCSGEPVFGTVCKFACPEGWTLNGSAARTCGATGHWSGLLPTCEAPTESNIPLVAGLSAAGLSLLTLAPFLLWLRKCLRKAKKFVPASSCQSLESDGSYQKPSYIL
Method: CD44 was immunoprecipitated from untreated cell lysates or from cell lysates treated with N-glycosidase-F (0.8 U/ml) Vibrio cholerae neuraminidase (0.1 U/ml) or a-L-fucosidase (80 mU/ml), and PSGL-1 was immunoprecipitated from untreated cell lysates as previously described (Sackstein and Dimitroff, 2000; Dimitroff et al., 2000).
CD44 or PSGL-1 immunoprecipitates were spotted onto plastic petri dishes, fixed in 3% glutaraldehyde and incubated in 0.2M lysine to block unreactive aldehyde groups, and then non-specific binding was prevented by incubating in 100% FBS for 1 hr at RT. Fixed spots were also treated with Vibrio cholerae neuraminidase (0.1 U/ml assay medium), which was overlaid onto the spots and incubated at 37° C. for 1 hr. […] The flow rate was then increased to achieve a shear stress of 2.8 dynes/cm^2. The frequency of cells rolling per 100× magnification field was determined, and data were expressed as the mean±standard deviation of 8 fields visualized from a minimum of 3 experiments.

[4] = target: T2, L-selectin (Rattus norvegicus, UniProt P30836); test: Stamper-Woodruff assay, lymphocyte adherence to immunoprecipitated CD44 and PSGL-1; assay type: cell-based; settings: 80 rpm; for Mean Number of Bound Lymphocytes: 0.75 μg/spot (PSGL-1 1 μg/spot), 4° C., 100× mag.
T2 construct: L-selectin naturally expressed on leukocytes; endogenous in cells; host or cells: lymphocytes (rat thoracic duct lymphocytes; human PBMC also prepared)
T2 sequence (P30836 39-372): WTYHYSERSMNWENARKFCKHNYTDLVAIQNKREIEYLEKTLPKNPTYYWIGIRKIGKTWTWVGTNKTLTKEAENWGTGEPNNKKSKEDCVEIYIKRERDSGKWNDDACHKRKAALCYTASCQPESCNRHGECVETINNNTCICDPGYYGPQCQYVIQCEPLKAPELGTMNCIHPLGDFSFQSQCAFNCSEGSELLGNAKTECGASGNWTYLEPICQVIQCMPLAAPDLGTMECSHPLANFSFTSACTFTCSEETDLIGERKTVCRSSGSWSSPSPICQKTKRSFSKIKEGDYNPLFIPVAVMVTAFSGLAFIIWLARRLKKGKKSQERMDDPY
Method: These protein spots were then fixed in 3% glutaraldehyde, unreactive aldehyde groups were blocked in 0.2M lysine and slides were kept in RPMI-1640 without NaBicarbonate/2% FBS until ready for testing. Lymphocytes (10^7/ml RPMI-1640 without NaBicarbonate/5% FBS) were overlayed onto these fixed immunoprecipitates and incubated on an orbital shaker at 80 rpm for 30 min. at 4° C. The number of adherent lymphocytes was quantified by light microscopy using an ocular grid under 100× magnification (a minimum of 5 fields/slide, 2 slides/experiment, and 3 separate experiments). Data were presented as the mean number of bound lymphocytes±standard deviation. KG1a CD34 and L-selectin control immunoprecipitates were also tested in this manner. To verify the dependence for sialic acid, glutaraldehyde-fixed spots were treated with Vibrio cholerae neuraminidase (0.1 U/ml RPMI-1640 without NaBicarbonate/2% FBS for lhr at 37° C.).
Immunoaffinity purified material (0.75-3 μg/spot) was spotted onto glass slides for analyses in the Stamper-Woodruff assay (See below for assay description). For autoradiographic analysis of immunoprecipitated [^35S]-methionine-radiolabeled CD44 and PSGL-1, immunoprecipitates were spotted onto glass slides, allowed to dry and exposed Kodak BioMax-MR film for 12 h at −80° C. Densitometric analysis (optical density) of the autoradiograms was performed with a Hewlett-Packard Scanj et 5200C scanner and NIH Image processing and analysis program.

[5] = target: T1, E-selectin; test: Blot rolling assay with CHO-E cells; assay type: cell-based; settings: immunoprecipitated CD44 on Western blot; 3.8 dynes/cm^2
Method: The blot rolling assay was performed as previously described (Dimitroff et al., 2000). Briefly, CHO-E, CHO—P or CHO-Mock transfectants were isolated as described above, washed twice in HBSS and suspended at 10^7/ml in HBSS/10 mM HEPES/2mMCaCl2 (H/H/Ca++)/10% glycerol. Western blots of HPC membrane preparations stained with HECA-452 were rendered transparent by incubating them in H/H/Ca++/10% glycerol. The blots were then placed in the parallel-plate flow chamber, and CHO transfectants (2×10^6/ml) were perfused into the chamber. After allowing the cells to come in contact with the blotting membrane, the flow rate was adjusted to exert a shear stress of 3.8 dynes/cm^2. The viscosity of 10% glycerol adhesion assay medium was considered in the calculation of shear stress values. The number of cells rolling on and between each immunostained banding region was quantified under 100× magnification within each field of view on the video monitor using molecular weight markers (Kaleidoscope Molecular Weight Markers, Bio-Rad Lab.; See Blue® from Novex, Inc.) as guides to help align and visualize the apparent molecular weights of the proteins of interest. A minimum of 3 experiments was performed and results were expressed as the mean±SD of cell rolling/field at 100× magnification.

O=C(O)CN(CCN(CC(=O)O)CC(=O)O)CC(=O)O [EDTA]
CHO-E cell rolling / E-selectin ligand activity of KG1a cells [1]: completely inhibited
CHO-E cell rolling / E-selectin ligand activity of HL60 cells [2]: completely inhibited

HL60 CD44: CD44 immunoprecipitated from HL60 cells
E-selectin ligand activity (CHO-E cell rolling) [3]: did not support any CHO-E cell rolling
Mean Number of Bound Lymphocytes [4]: 6.5

BMEC-1 CD44: CD44 from human BM endothelial cell line BMEC-1
E-selectin ligand activity (CHO-E cell rolling) in blot rolling assay [5]: did not possess any E-selectin ligand activity

AML (M1) CD44: CD44 (HCELL) immunoprecipitated from blasts of an AML without maturation (M1)
Mean Number of Bound Lymphocytes [4]: 425.3
fold higher mean number of lymphocytes bound to CD44 than to PSGL-1 ([4]; p<0.001): 3 fold

a-L-fucosidase-treated KG1a CD44: CD44 immunoprecipitated from a-L-fucosidase-treated KG1a lysate
E-selectin ligand activity (CHO-E cell rolling) [3]: abrogated CHO-E cell rolling

K562 CD44: CD44 isolated from K562 cells
E-selectin ligand activity (CHO-E cell rolling) [3]: did not support any CHO-E cell rolling

RPMI 8402 CD44: CD44 isolated from RPMI 8402 cells
E-selectin ligand activity (CHO-E cell rolling) [3]: did not support any CHO-E cell rolling

AML (M1) N-glycosidase-F CD44: N-glycosidase-F-treated CD44 from AML (M1) blasts
Mean Number of Bound Lymphocytes [4]: 23.4

B1: CD34 (Molecular Control): CD34 (QBend-10) immunoprecipitated from KG1a cells, negative molecular control (protein)
chain: SLDNNGTATPELPTQGTFSNVSTNVSYQETTTPSTLGSTSLHPVSQHGNEATTNITETTVKFTSTSVITSVYGNTNSSVQSQTSVISTVFTTPANVSTPETTLKPSLSPGNVSDLSTTSTSLATSPTKPYTSSSPILSDIKAEIKCSGIREVKLTQGICLEQNKTSSCAEFKKDRGEGLARVLCGEEQADADAGAQVCSLLLAQSEVRPQCLLLVLANRTEISSKLQLMKKHQSDLKKLGILDFTEQDVASHQSYSQKTLIALVTSGALLAVLGITGYFLMNRRSWSPTGERLGEDPYYTENGGGQGYSSGPGTSPEAQGKASVNRGAQENGTGQATSRNGHSARQHVVADTEL
Mean Number of Bound Lymphocytes [4]: 4.0

B2: HL60 PSGL-1: PSGL-1 immunoprecipitated from HL60 cells (protein)
chain: QATEYEYLDYDFLPETEPPEMLRNSTDTTPLTGPGTPESTTVEPAARRSTGLDAGGAVTELTTELANMGNLSTDSAAMEIQTTQPAATEAQTTQPVPTEAQTTPLAATEAQTTRLTATEAQTTPLAATEAQTTPPAATEAQTTQPTGLEAQTTAPAAMEAQTTAPAAMEAQTTPPAAMEAQTTQTTAMEAQTTAPEATEAQTTQPTATEAQTTPLAAMEALSTEPSATEALSMEPTTKRGLFIPFSVSSVTHKGIPMAASNLSVNYPVGAPDHISVKQCLLAILILALVATIFFVCTVVLAVRLSRKGHMYPVRNYSPTEMVCISSLLPDGGEGPSATANGGLSKAKSPGLTPEPREDREGDDLTLHSFLP
Mean Number of Bound Lymphocytes [4]: 11.0

B3: AML (M1) PSGL-1: PSGL-1 immunoprecipitated from AML (M1) blasts (protein)
chain: QATEYEYLDYDFLPETEPPEMLRNSTDTTPLTGPGTPESTTVEPAARRSTGLDAGGAVTELTTELANMGNLSTDSAAMEIQTTQPAATEAQTTQPVPTEAQTTPLAATEAQTTRLTATEAQTTPLAATEAQTTPPAATEAQTTQPTGLEAQTTAPAAMEAQTTAPAAMEAQTTPPAAMEAQTTQTTAMEAQTTAPEATEAQTTQPTATEAQTTPLAAMEALSTEPSATEALSMEPTTKRGLFIPFSVSSVTHKGIPMAASNLSVNYPVGAPDHISVKQCLLAILILALVATIFFVCTVVLAVRLSRKGHMYPVRNYSPTEMVCISSLLPDGGEGPSATANGGLSKAKSPGLTPEPREDREGDDLTLHSFLP
Mean Number of Bound Lymphocytes [4]: 141.5

B4: L-selectin (Molecular Control): L-selectin (LAM 1-3) immunoprecipitated from KG1a cells, negative molecular control (protein)
chain: WTYHYSEKPMNWQRARRFCRDNYTDLVAIQNKAEIEYLEKTLPFSRSYYWIGIRKIGGIWTWVGTNKSLTEEAENWGDGEPNNKKNKEDCVEIYIKRNKDAGKWNDDACHKLKAALCYTASCQPWSCSGHGECVEIINNYTCNCDVGYYGPQCQFVIQCEPLEAPELGTMDCTHPLGNFSFSSQCAFSCSEGTNLTGIEETTCGPFGNWSSPEPTCQVIQCEPLSAPDLGIMNCSHPLASFSFTSACTFICSEGTELIGKKKTICESSGIWSNPSPICQKLDKSFSMIKEGDYNPLFIPVAVMVTAFSGLAFIIWLARRLKKGKKSKRSMNDPY
Mean Number of Bound Lymphocytes [4]: 0.5
